The record followed here is patent US20210261671A1 (HARPOON THERAPEUTICS, published 2021).

The target of the assay is T1, anti-FLT3/anti-albumin/anti-CD3 multispecific protein containing humanized FLH19C.
T1 construct: trispecific single-chain fusion with His6; purified from CHO conditioned medium
Briefly: biolayer interferometry (data not shown). For orientation: Biolayer interferometry detects binding as a change in optical thickness at a sensor tip.

T1 sequence (chain, as listed by the source): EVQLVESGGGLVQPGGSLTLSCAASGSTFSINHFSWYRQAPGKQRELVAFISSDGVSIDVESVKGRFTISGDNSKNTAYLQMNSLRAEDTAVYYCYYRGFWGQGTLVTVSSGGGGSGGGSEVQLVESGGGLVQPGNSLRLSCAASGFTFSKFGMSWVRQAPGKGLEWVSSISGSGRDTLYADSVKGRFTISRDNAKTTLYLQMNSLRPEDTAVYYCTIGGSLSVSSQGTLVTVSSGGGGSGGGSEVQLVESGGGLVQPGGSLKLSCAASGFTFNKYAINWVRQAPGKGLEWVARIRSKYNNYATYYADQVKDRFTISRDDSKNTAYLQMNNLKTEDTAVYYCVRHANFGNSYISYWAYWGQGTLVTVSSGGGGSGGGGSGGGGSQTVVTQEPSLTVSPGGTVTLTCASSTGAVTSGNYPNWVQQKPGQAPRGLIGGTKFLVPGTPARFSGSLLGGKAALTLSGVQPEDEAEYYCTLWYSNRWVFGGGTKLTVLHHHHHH

B1: cynomolgus serum albumin (other, cynomolgus monkey, UniProt A2V9Z4 25-608, looked up)
chain: DTHKSEVAHRFKDLGEEHFKGLVLVAFSQYLQQCPFEEHVKLVNEVTEFAKTCVADESAENCDKSLHTLFGDKLCTVATLRETYGEMADCCAKQEPERNECFLQHKDDNPNLPPLVRPEVDVMCTAFHDNEATFLKKYLYEVARRHPYFYAPELLFFAARYKAAFAECCQAADKAACLLPKLDELRDEGKASSAKQRLKCASLQKFGDRAFKAWAVARLSQKFPKAEFAEVSKLVTDLTKVHTECCHGDLLECADDRADLAKYMCENQDSISSKLKECCDKPLLEKSHCLAEVENDEMPADLPSLAADYVESKDVCKNYAEAKDVFLGMFLYEYARRHPDYSVMLLLRLAKAYEATLEKCCAAADPHECYAKVFDEFQPLVEEPQNLVKQNCELFEQLGEYKFQNALLVRYTKKVPQVSTPTLVEVSRNLGKVGAKCCKLPEAKRMPCAEDYLSVVLNRLCVLHEKTPVSEKVTKCCTESLVNRRPCFSALELDEAYVPKAFNAETFTFHADMCTLSEKEKQVKKQTALVELVKHKPKATKEQLKGVMDNFAAFVEKCCKADDKEACFAEEGPKFVAASQAALA
B1: the Kd – broadly, the equilibrium constant for the complex coming apart – was determined as 4.4 nM.
